Experiments:
[1] = target: HLA-A2 presenting TdT peptide-3 (…) on target cells (human); assay: cell-based or functional assay
[2] = target: T1, human terminal deoxynucleotidyl transferase (TdT) peptide on HLA-A*02:01 (human); assay: cytokine release
T1 peptide: ALYDKTKRI

[3] = target: T2, human terminal deoxynucleotidyl transferase (TdT) peptide on HLA-A*02:01 (human); assay: multimer staining
T2 peptide: ALYDKTKRIFL

[4] = target: HLA-A2 presenting TdT peptide-1 (…) on target cells (human); assay: cell-based or functional assay
[5] = target: T1, human terminal deoxynucleotidyl …; assay: multimer staining

B1: T3 TCR (TCR, V domains shown)
V domain 1: SQQGEEDPQALSIQEGENATMNCSYKTSINNLQWYRQNSGRGLVHLILIRSNEREKHSGRLRVTLDTSKKSSSLLITASRAADTASYFCATDAGAYSGGGADGLTFGKGTHLIIQP
V domain 2: EAQVTQNPRYLITVTGKKLTVTCSQNMNHEYMSWYRQDPGLGLRQIYYSMNVEVTDKGDVPEGYKVSRKEKRNFPLILESPSPNQTSLYFCASSLSSSYNEQFFGPGTRLTVLE
- EC50 of activation of T3 cells following co-incubation with peptide-pulsed T2 lymphoblast cells [1]: 1.2 nM

B2: T3 TCR (TCR, V domains shown)
Valpha: B1 V domain 1
Vbeta: EAQVTQNPRYLITVTGKKLTVTCSQNMNHEYMSWYRQDPGLGLRQIYYSMNVEVTDKGDVPEGYKVSRKEKRNFPLILESPSPNQTSLYFCASSLSSSYNEQFFGPGTRLTVL
- binding result [2]: no recognition
- binding result [3]: recognises

B3: T1 TCR (TCR, V domains shown)
V domain 1: EDQVTQSPEALRLQEGESSSLNCSYTVSGLRGLFWYRQDPGKGPEFLFTLYSAGEEKEKERLKATLTKKESFLHITAPKPEDSATYLCAVQASSNSGYALNFGKGTSLLVTP
V domain 2: SAVISQKPSRDICQRGTSLTIQCQVDSQVTMMFWYRQQPGQSLTLIATANQGSEATYESGFVIDKFPISRPNLTFSTLTVSNMSPEDSSIYLCSVEPGYADTQYFGPGTRLTVLE
- EC50 of activation of T1 cells following co-incubation with peptide-pulsed T2 lymphoblast cells [4]: 5.8 nM

B4: T1 TCR (TCR, V domains shown)
Valpha: B3 V domain 1
Vbeta: SAVISQKPSRDICQRGTSLTIQCQVDSQVTMMFWYRQQPGQSLTLIATANQGSEATYESGFVIDKFPISRPNLTFSTLTVSNMSPEDSSIYLCSVEPGYADTQYFGPGTRLTVL
- binding result [5]: recognises

— US20250170175A1 (OSLO UNIVERSITETSSYKEHUS HF, published 2025)
